Source: patent US10391180B2, “Self-assembling complex for targeting chemical agents to cells” (CEDARS-SINAI MEDICAL CENTER, priority 2007, dated 2019)

Assays:
[1] = test system: GFP(+) MDA-MB-231 (HER2−) cells; assay: Targeting in a mixed cell culture; type: cell-based; conditions: HerDox containing 0.5 uM Dox, day 2
Experimental: (§1) FIGS. 9 (A)-(C) illustrates targeting in a mixed cell culture. As illustrated in FIG. 10 (A), equal numbers of MDA-MB-435 and GFP(+) MDA-MB-231 cells were treated with Dox alone (0.5 uM), Her-Dox (containing 0.5 uM Dox), or HerPBK10 (1.2 ug/well, equivalent to HerPBK10 in HerDox). Wells were assayed for GFP fluorescence (to determine relative MDA-MB-231 number) and crystal violet staining (to determine total cell number). As illustrated in FIG. 9 (B), cell survival was determined by calculating the relative doubling time (DT) of experimental (exp) cells normalized by control (con) cells based on the crystal violet stains (total cells) and GFP fluorescence (MDA-MB-231 cells). The DT of MDA-MB-435 was determined by subtracting the DT of MDA-MB-231 from the total cell DT. Relative survival is shown for Day 2 of treatment. As illustrated in FIG. 9 (C), there is stability in cell culture. Aliquots of culture media containing HerDox (after incubation for the indicated times at 37° C.) were electrophoresed on a 2% agarose gel. HerDox incubated at 37° C. in HEPES-buffered saline, lacking serum, was processed in parallel. Dox fluorescence was visualized by UV excitation. Free Dox (Dox alone) is not retained in the gel whereas Dox incorporated in HerDox is. […]

[2] = test system: MDA-MB-435 (non-GFP, HER2+) cells; assay: Targeting in a mixed cell culture; type: cell-based; conditions: HerDox containing 0.5 uM Dox, day 2
Experimental: as §1

[3] = HerDox stability under different storage temperatures; type: physicochemical; conditions: up to 12 days
Experimental: FIGS. 6 (A)-(B) illustrates conjugate stability under different storage conditions, or in serum. As illustrated in FIG. 6 (A), HerDox was incubated up to 12 days at 4° C., RT, or 37° C. Samples were filtered through ultrafiltration spin columns every other day, and retentate and filtrate absorbances measured at 480 nm to determine relative Dox retention or release from conjugates, respectively. As illustrated in FIG. 6 (B), to mimic extended exposure to cells in culture medium, HerDox immobilized on Ni-NTA beads were incubated with bovine serum in DMEM for the indicated times at 37° C. before each sample was pelleted. Absorbance of supernatants (Filtrates) and bead eluates (Retentates) were measured at 480 nm to detect Dox. Relative Dox release or retention in serum is expressed as normalized to control (corresponding sample lacking serum). N=3 per time point.
The inventors tested the stability of HerDox over 12 days under different storage temperatures: 4° C., room temperature, or 37° C. On each day, a sample underwent ultrafiltration, then filtrates and retentates were measured to determine whether any Dox was released from the complex. […] The inventors also examined HerDox stability in serum-containing media at 37° C. […] Dox retention in the conjugate was also assessed by eluting the conjugate from the beads at each time point.

[4] = HerDox stability in cell culture media, agarose gel; type: in vitro ADME; conditions: serum-containing culture media, 37° C.
Experimental: as §1

[5] = test system: heregulin receptors on MDA-MB-435 (HER2+) cells; assay: Receptor specificity, competition with free heregulin ligand (eHRG); type: cell-based; conditions: eHRG 10× molar excess, HerDox 0.5 uM
Experimental: FIG. 8 illustrates receptor specificity. MDA-MB-435 (HER2+) cells were incubated with free ligand (eHRG) at 10× molar excess of HerDox for 1 h at 4° C. Media was aspirated to remove free eHRG and fresh media containing HerDox (0.5 uM) was added to cells. Cell survival was measured by MTT assay and represented as a % of relative untreated cell numbers.
The inventors compared the effect of HerDox or Dox alone at equivalent dosages (0.5 uM with respect to Dox concentration) on HER2+ and HER2− breast cancer cells in separate dishes. By three days, HerDox reduced HER2+ cell numbers by over 75% whereas HER2− cell survival was unaffected (FIG. 7). […] These findings emphasize the importance of targeting by showing that the untargeted drug affects nontarget (i.e. HER2−) cells. Importantly, the protein carrier, HerPBK10, alone at the equivalent concentration of protein in HerDox (0.1 uM) had no effect on either cell line (FIG. 7), including a lack of proliferation induction. To test receptor targeting, the inventors used free heregulin ligand (Her or eHRG) as a competitive inhibitor. […] As a final in vitro challenge, the inventors tested whether HerDox induces toxicity specifically to HER2+ cells in a mixed culture of HER2+ and HER2− breast cancer cells. […]

[6] = test system: hearts of mice; assay: Cardiac tissue histology and echocardiography; type: in vivo; conditions: treated mice
Excerpt: FIGS. 12 (A)-(D) illustrates comparison of HerDox and Dox on (A) tumor growth, (B) animal weight, (C) cardiac tissue, and (D) cardiac function.
At 25 days following injections, tumors and organs were harvested and processed for histochemistry. It is established that Dox can induce acute and long-term cardiotoxicity, therefore, the inventors examined the hearts of mice treated with HerDox or Dox.

B1: HerDox: non-covalent complex of HerPBK10, a small double-stranded nucleic acid and intercalated Dox (conjugate)
chain: LPPRLKEMKSQESAAGSKLVLRCETSSEYSSLRFKWFKNGNELNRKNKPQNIKIQKKPGKSELRINKASLADSGEYMCKVISKLGNDSASANITIVESNEIITGMPASTEGAYVSSESPIRISVSTEGANTSSSTSTSTTGTSHLVKCAEKEKTFCVNGGECFMVKDLSNPSRYLCKCQPGFTGARCTENVPMKVQNQEKAEELYMRRAAMYEEGPPPSYESVVSAAPVAAALGSPFDAPLDPPFVPPRYLRPTGGRNSIRYSELAPLFDTTRVYLVDNKSTDVASLNYQNDHSNFLTTVIQNNDYSPGEASTQTINLDDRSHWGGDLKTILHTNMPNVNEFMFTNKFKARVMVSRLPTKDNQVELKYEWVEFTLPEGNYSETMTIDLMNNAIVEHYLKVGRQNGVLESDIGVKFDTRNFRLGFDPVTGLVMPGVYTNEAFHPDIILLPGCGVDFTHSRLSNLLGIRKRQPFQEGFRITYDDLEGGNIPALLDVDAYQASLKDDTEQGGGGAGGSNSSGSGAEENSNAAAAAMQPVEDMNDHAIRGDTFATRAEEKRAEAEAAAEAAAPAAQPEVEKPQKKPVIKPLTEDSKKRSYNLISNDSTFTQYRSWYLAYNYGDPQTGIRSWTLLCTPDVTCGSEQVYWSLPDMMQDPVTFRSTRQISNFPVVGAELLPVHSKSFYNDQAVYSQLIRQFTSLTHVFNRFPENQILARPPAPTITTVSENVPALTDHGTLPLRNSIGGVQRVTITDARRRTCPYVYKALGIVSPRVLSSRTFKKKKKKKKKK
modifications: left off: small tags and cut ends
notes: non-covalent complex of HerPBK10, a small double-stranded nucleic acid and intercalated Dox
GFP (HER2−) cell growth in mixed culture [1]: not altered
non-GFP (HER2+) cell proliferation in mixed culture [2]: nearly completely reduced
product remaining intact ([3]; 4° C.): 100%
effect of storage on Dox incorporation ([3]; room temperature and 37° C.): enhance the incorporation of the drug
loss of Dox fluorescence from conjugate over time [4]: no such loss from HerDox is detectable
cell killing by HerDox in presence of free heregulin ligand [5]: completely inhibited
echocardiogram: stroke volume, cardiac output, left ventricular internal dimension and volume [6]: no effect
